Data: US9931373B2, “Method of reducing cancer cell proliferation by administering recombinant alpha-fetoprotein” (priority 2005, dated 2018)

Columns and labels:
[1] = system: cells of B-cellular lymphoma Raji; assay: Nude line mice implanted with Raji lymphoma cells, tumor size; assay type: in vivo; conditions: intraperitoneally daily for 20 days, 10 animals, listed as AFP
Description: Anticancer preparations on the base of rAFP and of modified forms thereof may be used for inhibition of the growth of malignant neoplasms, such as primary or metastatic cancer of the liver, blood cancer (leucosis, myeloblastoma, lymphoma), breast cancer, prostate cancer. In order to determine the sensitivity of tumor cells to rAFP, it is possible to use different methods both in vitro and also in vivo. The method of determining activity in vitro is described in the preceding example 8. In order to determine the oncosuppressive action of preparations on the base of AFP in vivo, animal models may be used, for example Nude mice with subcutaneously or intraperitoneally implanted human lines of cancer cells, such as Raji, HepG2, LnCap, MCF-7 and others. For example, cells of B-cellular lymphoma Raji were administered subcutaneously in an amount of 1-5×10^6 per mouse. Administration of the rAFP and derivatives thereof was begun 7 days […] implantation of tumor cells intraperioneally or intravenously in an amount of 1-10 mg/kg. The physiological buffered solution (PBS) was used as a control. The size of the tumor was evaluated by daily measurements with the aid of a micrometer.

[2] = system: human hepatoma cells HepG2; assay: Treatment of HepG2 cells in vitro with rhAFP; assay type: cell-based
Protocol: Results: Without treatment, tumors were determined at 5th-7th day after transplantation.

[3] = system: Human mesenchymal stromal/stem adipose tissue cells (ATSC); assay: Proliferation of adipose tissue stem cells (ATSC), [H3]-thymidine incorporation; assay type: cell-based; conditions: for Cell proliferation (cpm × 103): 24 h
Description: Human mesenchymal stromal/stem adipose tissue cells (ATSC) were isolated either from liposuction aspirates or from products of the fat deposit removed during the cosmetic surgery. The tissue was mechanically split to the fragments of several cubic millimeters. A suspension of tissue was mixed with type I Collagenase (200 U/ml) and Dispase (30 U/ml) (Sigma) in solution of 50% DMEM (Sigma, D-5523), 50% F12 (Sigma, N-6760), 1% BSA (Sigma), /100 U/ml penicillin and 100 U/ml ampicilline in 1:1 v/v and incubated for 1 hr at 37° C. to with mixing, following by filtering through 40 μm membrane (BD Falcon). The suspension was centrifuged 5 min at 200 g, upper layer was removed, and pellet consisting of separate non-adipose cells was treated by erythrocyte lysis buffer (154 mM NH4Cl, 10 mM KHCO3, 0.1 mM EDTA) during 5 min at 37° C., following by 5 min centrifugation at 300 g. Cell pellet was resuspended in DMEM/10% FBS. Resulting cells were cultured in the same medium in plastic flasks in CO2 incubator (37° C., 5% CO2). When reaching confluence, the cells were passaged by treatment the cell monolayer with 0.25% trypsin/0.02% EDTA. For the purpose of long-time storage, the cells were frozen in the culture medium supplemented by 15-20% FBS and 10% DMSO. Adipose cells were cultivated in DMEM/F12 medium with the addition 10% FBS 0.1% ECGF on 60 mm Petri dishes at 37° C. and 5% CO2. For the passages 0.25% trypsin/0.02% EDTA. solution was used. For the purpose of long-time storage, the cells were frozen in the culture medium supplemented by 15-20% FBS and 10% DMSO. Adipose tissue stem cells (ATSC) were cultivated in DMEM/F12 medium with the addition 10% FBS 0.1% ECGF on 60 mm Petri dishes at 37° C. and 5% CO2. For the passages 0.25% trypsin/0.02% EDTA solution was used. For the purpose of long-time storage, the cells were frozen in the culture medium supplemented by 15-20% FBS and 10% DMSO.
Human donor ATSC were isolated and cultivated as described above, the cells from 2-4 passage were taken in the study. ADSC (3×10^4) were plated in flat-bottom 96-well plates (Costar, USA) in complete medium with 10% FCS, after 18 h the medium was changed onto the medium with 5% human sera and cells were treated with increasing amounts of rhAFP (0-500 μg/ml) for 24 h. The direct effect of rhAFP on proliferation of ATSC was measured by [H^3]-thymidine incorporation. For the last 4 h 1 μCi of methyl-[H^3]-thymidine was added to the cultures.

[4] = system: embryonal fibroblasts of the lung and human retina; assay: Growth of primary culture of human embryonal fibroblasts, [H3]-thymidine; assay type: cell-based; conditions: 24 hours, FIG. 7
Protocol: Proliferation of the cells was measured by a standard method of [H^3]-thymidine incorporation during the last four hours of culture and expressed in percent of the stimulation of growth in test cultures in respect of a control without AFP.
The primary culture of embryonal fibroblasts of the lung and human retina was obtained by treating with 0.25% trypsin solution corresponding tissues of 5-10 week embryos obtained after legal abortions. The cells were cultures in an RPMI-1640 medium in the presence of a 10% calf fetal serum (CFS). The cytostatic activity of AFP was measured as earlier described (Semenkova, L. 1997, Tumor Biol. 18, 261-274; Dudich E. I., et al., 1998, Tumor Biol. 198, 30-40). Cells in an amount of 4×10^4 in a 0.15 ml medium were intensively washed with a fresh to medium and placed in each cell of a 96-lune plate, then different doses of AFP were added and cultures 24 hours. Proliferation of the cells was measured by a standard method by the inclusion of [H^3]-thymidine during the last four hours of culturing.

[5] = system: Human Umbilical Vein Endothelial Cells (HUVEC); assay: Wound healing assay with HUVEC; assay type: cell-based; conditions: serum-free medium, 50 μg/ml rhAFP, 18 hrs; HSA as control
Protocol: HUVECs were plated onto the gelatin-coated 24-well plates, and grown for confluence. Than monolayers were wounded by scrapper, and cells were incubated in the serum-free medium with 0.1-0.5 mg/ml of rhAFP or HSA.
To test ability of rhAFP to stimulate regeneration of damaged tissue we established classical wound healing assay with normal Human Umbilical Vein Endothelial Cells (HUVEC) obtained after surgical resection of human vein tissue. HUVEC cells were cultivated in DMEM/F12 medium with addition 10% FBS and 0.1% ECGF on the 60 mm Petri dishes at 37° C. at 5% CO2 atmosphere. HUVECs were plated on gelatin-coated 24-well plates, and grown for confluence, than monolayers were wounded and cells were incubated in serum-free medium with 50 μg/ml rhAFP or 50 μg/ml HSA, healing was observed after 18 hrs incubation. Images of wound healing were taken after staining with crystal violet.

B1: rhAFP: recombinant human alpha-fetoprotein secreted by yeast Saccharomyces cerevisiae YBS723/pKX, glycosylated, mature human AFP sequence SEQ ID NO:2 (protein, listed as Homo sapiens)
chain: TLHRNEYGIASILDSYQCTAEISLADLATIFFAQFVQEATYKEVSKMVKDALTAIEKPTGDEQSSGCLENQLPAFLEELCHEKEILEKYGHSDCCSQSEEGRHNCFLAHKKPTPASIPLFQVPEPVTSCEAYEEDRETFMNKFIYEIARRHPFLYAPTILLWAARYDKIIPSCCKAENAVECFQTKAATVTKELRESSLLNQHACAVMKNFGTRTFQAITVTKLSQKFTKVNFTEIQKLVLDVAHVHEHCCRGDVLDCLQDGEKIMSYICSQQDTLSNKITECCKLTTLERGQCIIHAENDEKPEGLSPNLNRFLGDRDFNQFSSGEKNIFLASFVHEYSRRHPQLAVSVILRVAKGYQELLEKCFQTENPLECQDKGEEELQKYIQESQALAKRSCGLFQKLGEYYLQNAFLVAYTKKAPQLTSSELMAITRKMAATAATCCQLSEDKLLACGEGAADIIIGHLCIRHEMTPVNPGVGQCCTSSYANRRPCFSSLVVDETYVPPAFSDDKFIFHKDLCQAQGVALQTMKQEFLINLVKQKPQITEEQLEAVIADFSGLLEKCCQGQEQEVCFAEEGQKLISKTRAALGV
modifications: yeast glycosylation
- Results (number of animals - tumor outcome) ([1]; 0.5 mg AFP per injection): 2-stabilization
- Results (number of animals - tumor outcome) ([1]; 0.5 mg AFP per injection, animals where tumor did not develop): 3-tumor did not develop
- Results (number of animals - tumor outcome) ([1]; 0.5 mg AFP per injection, animals with 50% tumor inhibition): 5-50% inhibition
- Results (number of animals - tumor outcome) ([1]; 1 mg AFP per injection): 2-stabilizaton
- Results (number of animals - tumor outcome) ([1]; 1 mg AFP per injection, animals where tumor did not develop): 3-tumor did not develop
- Results (number of animals - tumor outcome) ([1]; 1 mg AFP per injection, animals with 50% tumor inhibition): 5-50% inhibition
- Results (number of animals - tumor outcome) ([1]; 2 mg AFP per injection): 2-stabilization
- Results (number of animals - tumor outcome) ([1]; 2 mg AFP per injection, animals where tumor did not develop): 3-tumor did not develop
- Results (number of animals - tumor outcome) ([1]; 2 mg AFP per injection, animals with 50% tumor inhibition): 5-50% inhibition
- effect on HepG2 cells in vitro [2]: dose-dependent growth suppression and apoptosis
- Maximum effect on proliferation of ATSC ([3]; 300 μg/ml of rhAFP, compared to untreated control): 50%
- Cell proliferation, change versus control ([3]; AFP 0.100 mg/ml, 2 passage): (+16%)
- Cell proliferation (cpm × 103) ([3]; AFP 0.100 mg/ml, 2 passage, control 17.8 ± 6.4): 20.7 ± 0.7 cpm × 103
- Cell proliferation, change versus control ([3]; AFP 0.100 mg/ml, 3 passage): (+7%)
- Cell proliferation (cpm × 103) ([3]; AFP 0.100 mg/ml, 3 passage, control 16.5 ± 1.5): 17.7 ± 5.3 cpm × 103
- Cell proliferation, change versus control ([3]; AFP 0.100 mg/ml, 4 passage): (+20%)
- Cell proliferation (cpm × 103) ([3]; AFP 0.100 mg/ml, 4 passage, control 0.83 ± 0.1): 1.0 ± 0.08 cpm × 103
- Cell proliferation, change versus control ([3]; AFP 0.300 mg/ml, 2 passage): (+44%)
- Cell proliferation (cpm × 103) ([3]; AFP 0.300 mg/ml, 2 passage, control 17.8 ± 6.4): 25.8 ± 4.1 cpm × 103
- Cell proliferation, change versus control ([3]; AFP 0.300 mg/ml, 3 passage): (+35%)
- Cell proliferation (cpm × 103) ([3]; AFP 0.300 mg/ml, 3 passage, control 16.5 ± 1.5): 22.4 ± 1.4 cpm × 103
- Cell proliferation, change versus control ([3]; AFP 0.300 mg/ml, 4 passage): (+50%)
- Cell proliferation (cpm × 103) ([3]; AFP 0.300 mg/ml, 4 passage, control 0.83 ± 0.1): 1.2 ± 0.24 cpm × 103
- stimulating effect on cellular growth in respect to the control [4]: 50-90%
- migration of HUVEC to the wounded area [5]: significantly activated the migration of HUVEC to the wounded area
